Reference: paper PMC4475381, “Molecular basis for the recognition of cyclic-di-AMP by PstA, a PII-like signal transduction protein” (MicrobiologyOpen, 2015)

Tests used:
[1] = molecular target: T1, PstA (LmPstA) (Listeria monocytogenes, UniProt Q8Y3Y7, F36A); test: DRaCALA binding titration with […]-c-di-AMP
T1 construct: gene lmo2692; pstA F36A in pET20b, C-terminal His-tag

[2] = molecular target: T2, PstA (LmPstA) (Listeria monocytogenes, UniProt Q8Y3Y7, N41A); test: DRaCALA binding titration with […]-c-di-AMP (saturation not achieved)
T2 construct: gene lmo2692; pstA N41A in pET20b, C-terminal His-tag

[3] = molecular target: PstA (PII-like signal transduction protein A) from Listeria monocytogenes (Listeria monocytogenes); test: SEC; gel filtration column (S-300, GE Healthcare) of purified LmPstA
[4] = molecular target: PstA (PII-like signal transduction protein A) from Listeria monocytogenes (Listeria monocytogenes); test: crystal structure; apo LmPstA (10 mg/mL); sitting drop, 20°C, 20% PEG3350, 0.1 mol/L bis-Tris pH 5.5, 0.1 mol/L ammonium acetate; 2.9 Å; trimer in the asymmetric unit
[5] = molecular target: PstA (PII-like signal transduction protein A) from Listeria monocytogenes (Listeria monocytogenes); test: crystal structure; LmPstA (20 mg/mL) cocrystallised with 2.5 mmol/L c-di-AMP; sitting drop, 20°C, 12% PEG3350, 0.1 mol/L sodium malonate pH 4.0; 1.6 Å; trimer in the asymmetric unit

Compound: Nc1ncnc2c1ncn2[C@@H]1O[C@@H]2COP(=O)(O)O[C@H]3[C@@H](O)[C@H](n4cnc5c(N)ncnc54)O[C@@H]3COP(=O)(O)O[C@H]2[C@H]1O [c-di-AMP]
- Kd [1]: 7 µM
- Kd [2]: ~140 µM

Compound: PstA (PII-like signal transduction protein A) from Listeria monocytogenes (natural protein)
- stoichiometry N [3]: 3
- stoichiometry N [4]: 3
- stoichiometry N [5]: 3
